Experimental data reported in article PMC5057311.

Tests used:
[1] = target: CD86 on cynomolgus monkey blood cells (cynomolgus monkey (endogenous in blood cells)); assay: flow cytometry on cells
[2] = target: CD80 on cynomolgus monkey blood cells (cynomolgus monkey (endogenous in blood cells)); assay: flow cytometry on cells

percent free CD86 of predose, 4 h after the low dose (0.03 mg/kg) [1]: 67% | serum CTLA4‐Ig concentration at ∼90% target suppression [1]: 33 µg/mL | percent free CD80 of predose, Day 14, high dose (3 mg/kg) [2]: 3% | percent free CD80 of predose, Day 14, middle dose (0.3 mg/kg) [2]: 42% | percent suppression of free CD80 upon administration (all dose groups) [2]: > 90% | serum CTLA4‐Ig concentration at ∼90% target suppression [2]: 0.18 µg/mL
Substance: CTLA4‐Ig recombinant fusion protein (from UniProt P16410 36-161) (Fc fusion)
